The source of these data is article doi:10.1101/2020.06.10.144725 (bioRxiv, 2020).

One may read the stoichiometry N as a count of units in the complex or per binding partner. By Kd is commonly meant the constant that tells how readily two partners part at equilibrium. A high value points to weaker binding.

In data set [1] the target is Lip-NKD-HisC (lipoyl domain-tagged HisC of NKD1) (human (identical sequence in mouse and human)) (UniProt Q969G9). As to the kind of experiment: SEC. (In general: SEC sorts molecules by how far they enter the pores of the column.)
Data set [2] has the same target. The experiment in a line: co-aggregation assay.
Data set [3] concerns the molecule itself. As to the kind of experiment: SEC-MALS.
The target of data set [4] is T1, Lip-DVL2-PDZ (human, UniProt O14641 285-373).
T1 sequence: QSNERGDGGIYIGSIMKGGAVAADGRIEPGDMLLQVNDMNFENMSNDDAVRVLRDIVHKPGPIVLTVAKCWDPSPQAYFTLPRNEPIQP
As to the kind of experiment: ITC.

Lip-NKD-HisC (lipoyl domain-tagged HisC of NKD1) (human (identical sequence in mouse and human)), sequence (Q969G9 whole entry, the tested form may be a part): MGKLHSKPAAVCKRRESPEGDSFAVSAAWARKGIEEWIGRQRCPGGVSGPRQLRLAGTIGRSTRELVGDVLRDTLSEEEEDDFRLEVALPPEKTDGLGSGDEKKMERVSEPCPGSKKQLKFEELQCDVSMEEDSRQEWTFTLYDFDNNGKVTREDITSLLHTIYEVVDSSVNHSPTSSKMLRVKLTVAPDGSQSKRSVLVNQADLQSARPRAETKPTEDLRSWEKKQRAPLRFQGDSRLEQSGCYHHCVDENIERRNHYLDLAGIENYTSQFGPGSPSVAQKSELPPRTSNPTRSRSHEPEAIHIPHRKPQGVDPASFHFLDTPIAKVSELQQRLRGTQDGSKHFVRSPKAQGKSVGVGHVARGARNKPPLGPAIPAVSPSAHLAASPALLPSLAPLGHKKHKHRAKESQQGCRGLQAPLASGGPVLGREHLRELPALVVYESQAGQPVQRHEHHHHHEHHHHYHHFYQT

In the case of “Lip-NKD-HisC (lipoyl domain-tagged HisC of NKD1) (from UniProt Q969G9 1-470) (domain or fragment)”, the stoichiometry N in data set [1] lay in the range of 15 to 25.

In data set [2], “MBP-Axin1-HisC (from UniProt O15169 1-862) (domain or fragment)” showed a molecules per core (molecules per core) of less than 5.

Turning to MBP-Axin2-HisC (domain or fragment), the molecules per core (molecules per core) in data set [2] is less than 4.

In data set [2], “MBP-NKD-HisC (maltose-binding protein-tagged HisC of NKD1) (from UniProt Q969G9 1-470) (domain or fragment)” yielded a stoichiometry N of 10.

B1: RFP-NKD1-EF (domain or fragment)
chain: EPCPGSKKQLKFEELQCDVSMEEDSRQEWTFTLYDFDNNGKVTREDITSLLHTIYEVVDSSVNHSPTSSKMLRVKLTVAPD
Turning to B1, the “stoichiometry N” value in data set [3] was 2. In data set [4], the Kd is 3.2 ± 0.2 µM.
